This is an account of results in patent US20130251724A1 (GlaxoSmithKline, published 2013).

Several values for one entry are separate records, joined by “and”; a condition that tells them apart may be missing. Identical values can stand only once. Like-named read-outs stand apart in the source and are kept apart here.

Assay [1] has as its target T1, Cynomolgus OSM (cynomolgus, UniProt A0A2K5VPC6 26-221).
T1 sequence: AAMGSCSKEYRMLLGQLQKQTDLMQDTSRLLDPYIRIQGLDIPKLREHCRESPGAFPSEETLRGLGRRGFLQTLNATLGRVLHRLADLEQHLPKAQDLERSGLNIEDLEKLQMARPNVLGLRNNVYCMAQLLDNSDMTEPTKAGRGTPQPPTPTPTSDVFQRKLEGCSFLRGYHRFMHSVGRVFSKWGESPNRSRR
In words: cell-based or functional assay.

Assay [2] concerns the target T2, Human OSM (human, UniProt P13725 26-221).
T2 sequence: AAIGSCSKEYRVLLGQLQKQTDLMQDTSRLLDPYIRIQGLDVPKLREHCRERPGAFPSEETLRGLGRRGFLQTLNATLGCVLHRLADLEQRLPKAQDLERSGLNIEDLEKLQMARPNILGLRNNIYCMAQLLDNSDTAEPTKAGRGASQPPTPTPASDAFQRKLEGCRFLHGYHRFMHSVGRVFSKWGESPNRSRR
In words: cell-based or functional assay.

Assay [3] has as its target T2, Human OSM. Briefly: cell-based or functional assay. The source holds these as a separate data set.
Assay [4] deals with T3, Endogenous human OSM (neutrophil-derived) (human, UniProt P13725 26-221, limits assumed).
T3 construct: Native OSM generated from GM-CSF stimulation of healthy human neutrophils; also called native OSM; endogenous OSM
T3 sequence: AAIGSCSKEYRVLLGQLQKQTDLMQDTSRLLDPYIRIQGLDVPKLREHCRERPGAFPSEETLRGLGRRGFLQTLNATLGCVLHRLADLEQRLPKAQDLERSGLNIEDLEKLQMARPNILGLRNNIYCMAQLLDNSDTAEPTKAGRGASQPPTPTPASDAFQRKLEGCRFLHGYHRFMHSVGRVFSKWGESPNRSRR
In words: gp130 ELISA with endogenous neutrophil-derived human OSM. On the technique in general: In an ELISA, binding on a coated surface is turned into a signal by an enzyme label.

For assay [5], the target named is T1, Cynomolgus OSM. Briefly: cell-based or functional assay. This is another data set of the same source.
Assay [6] deals with T2, Human OSM. In words: cell-based or functional assay. This is another data set of the same source.
Assay [7] concerns the target T1, Cynomolgus OSM. In words: BIAcore kinetics. (In general: SPR reads the build-up and loss of mass on a sensor chip optically.)
The target of assay [8] is T2, Human OSM. In words: BIAcore kinetics.
Assay [9] addresses T1, Cynomolgus OSM. Briefly: human gp130 ELISA, inhibition of OSM binding to gp130.
The target of assay [10] is T2, Human OSM. Described as above.
Assay [11] concerns the target T1, Cynomolgus OSM. Briefly: BIAcore kinetics. This is another data set of the same source.
Assay [12] concerns the target T2, Human OSM. Briefly: BIAcore kinetics. This is another data set of the same source.
Assay [13] has as its target T1, Cynomolgus OSM. Briefly: human gp130 ELISA, inhibition of OSM binding to gp130. The source holds these as a separate data set.
The target in assay [14] is T2, Human OSM. Described as above. The source holds these as a separate data set.
Assay [15] has as its target T2, Human OSM. In words: direct ELISA, human OSM coated at 1 µg/ml, detection with anti-human IgG. As to the method:
Both the 10G8 and 9G2 chimaeras successfully bound to human OSM, to a greater extent than 15E10chimera (15E10c) (FIG. 11). This was a direct ELISA where human OSM was coated at 1 μg/ml and bound antibodies detected using anti-human IgG.

The target in assay [16] is T1, Cynomolgus OSM. Briefly: BIAcore kinetics, purified antibody.
Assay [17] concerns the target T2, Human OSM. In words: BIAcore kinetics, purified antibody.
For assay [18], the target named is T3, Endogenous human OSM …. Briefly: gp130 ELISA with endogenous neutrophil-derived human OSM. The source holds these as a separate data set.
Assay [19] concerns the target T1, Cynomolgus OSM. Briefly: BIAcore kinetics, transfection supernatant.
Assay [20] has as its target T2, Human OSM. Briefly: BIAcore kinetics, transfection supernatant.
The target in assay [21] is T1, Cynomolgus OSM. In words: cell-based or functional assay. This is another data set of the same source.
Assay [22] deals with T2, Human OSM. In words: cell-based or functional assay. The source holds these as a separate data set.
Another assay has as its target Marmoset OSM (marmoset). Briefly: cell-based or functional assay.
Assay [23] has as its target T2, Human OSM. In words: BIAcore kinetics, transfection supernatant. The source holds these as a separate data set.
The target in assay [24] is T1, Cynomolgus OSM. Briefly: BIAcore kinetics, purified antibody. This is another data set of the same source.
Assay [25] deals with T2, Human OSM. Briefly: BIAcore kinetics, purified antibody. The source holds these as a separate data set.
In assay [26] the target is T1, Cynomolgus OSM. In words: cell-based or functional assay. This is another data set of the same source.
Assay [27] concerns the target T2, Human OSM. Briefly: cell-based or functional assay. The source holds these as a separate data set.
Assay [28] has as its target T1, Cynomolgus OSM. Briefly: cell-based or functional assay. The source holds these as a separate data set.
Assay [29] concerns the target T2, Human OSM. Briefly: cell-based or functional assay. This is another data set of the same source.
Assay [30] concerns the target T1, Cynomolgus OSM. Briefly: BIAcore kinetics, purified antibody. The source holds these as a separate data set.
For assay [31], the target named is T2, Human OSM. Briefly: BIAcore kinetics, purified antibody. The source holds these as a separate data set.

B1: 9G2, murine anti-OSM mAb (antibody, V domains shown)
VH: EVQLVESGGGLVEPGGSLKLSCAASGFTFSNYAMSWVRQTPEKRLEWVATISDGGSFTYYLDNVKGRFTISRDNAKNNLYLQMSHLKSDDTAMYYCARDVGHTTFWYFDVWGTGTTVTVSS
VL: DIVLTQSPVFLVISLGQRATISCRASKSVSASGYNFMHWYQQKPGQPPKVLIKYASNLESGVPARFSGSGSGTDFTLNIHPVEEEDAVTYYCQHSREFPFTFGGGTKLEIK
notes: Mouse hybridoma mAb; also called 9G2/C1; 9G2.C1
As to B1, the “KB cell neutralisation assay, mean IC50” value with Cynomolgus OSM [1] was 100 pM and 0.015 µg/ml; with Human OSM [2] it was 0.018 µg/ml and 120 pM; in the assay with Cynomolgus OSM [5] it was 0.046 µg/ml and 307 pM; with Human OSM [6], 0.163 µg/ml and 1.1 nM. The “IC50 (read off the curve); IL-6 release from KB cells stimulated with human OSM, 25% human AB serum” value with Human OSM [3] was about 0.03 µg/mL. The IC50 (in general, the concentration needed to halve the response being measured) in assay [4] is 0.02 µg/mL and 0.133 nM; with Cynomolgus OSM [9], 0.03 µg/mL and 0.2 nM; in the assay with Human OSM [10], 0.16 µg/mL and 1.1 nM; with Cynomolgus OSM [13], 0.049 µg/mL and 0.327 nM; in the assay with Human OSM [14], 0.038 µg/mL and 0.253 nM. In addition, the Kd (in general, the equilibrium constant for the complex coming apart) with Cynomolgus OSM [7] worked out at 750 pM; with Human OSM [8], 1600 pM; in the assay with Cynomolgus OSM [11], 775 pM; with Human OSM [12] it was 1600 pM. Moreover, the off-rate (koff) (usually a measure of how fast the partners let go of each other) came out at 4.76e-05 s⁻¹ in the assay with Cynomolgus OSM [11] and 0.000121 s⁻¹ with Human OSM [12]. Moreover, the values for the kon with Cynomolgus OSM [11] and in the assay with Human OSM [12] were 61400 M⁻¹ s⁻¹ and 75200 M⁻¹ s⁻¹, respectively.

B2: 9G2 chimaera (antibody, human IgG1, kappa, V domains shown)
VH: EVQLVESGGGLVEPGGSLKLSCAASGFTFSNYAMSWVRQTPEKRLEWVATISDGGSFTYYLDNVKGRFTISRDNAKNNLYLQMSHLKSDDTAMYYCARDVGHTTFWYFDVWGTGTLVTVSS
VL: DIVLTQSPVFLVISLGQRATISCRASKSVSASGYNFMHWYQQKPGQPPKVLIKYASNLESGVPARFSGSGSGTDFTLNIHPVEEEDAVTYYCQHSREFPFTFGGGTKLEIKR
notes: Mouse V regions on human gamma 1 wild type and human kappa constant regions; also called 9G2 chimera
Consider B2, for which the IC50 was 0.017 µg/mL and 0.113 nM in [4]; 0.028 µg/mL and 0.187 nM with Cynomolgus OSM [13]; 0.078 µg/mL and 0.52 nM with Human OSM [14]. For the same molecule, in the assay with Human OSM [15], the EC50 (read off the curve) (commonly the concentration at which the effect is half-maximal) was about 400 pM. For the same molecule, the “KB cell neutralisation assay, mean IC50” value in the assay with Cynomolgus OSM [5] was 0.031 µg/ml and 207 pM; with Human OSM [6], 0.231 µg/ml and 1.5 nM. The values for the Kd with Cynomolgus OSM [11] and with Human OSM [12] were 787 pM and 1330 pM, respectively. The koff with Cynomolgus OSM [11] is 9.99e-05 s⁻¹; in the assay with Human OSM [12] it was 0.000168 s⁻¹. Besides, the kon (as a rule, a measure of how fast the partners come together) came out at 127000 M⁻¹ s⁻¹ in the assay with Cynomolgus OSM [11] and 126000 M⁻¹ s⁻¹ with Human OSM [12].

B3: Humanised 10G8 H0L1 (antibody, human IgG1, kappa, V domains shown)
VH: EVQLVESGGGLVQPGGSLRLSCAASGFTFSNYAMSWVRQAPGKGLEWVATISDGGSFTYYLDNVRGRFTISRDNAKNSLYLQMNSLRAEDTAVYYCARDVGHTTFWYFDVWGRGTLVTVSS
VL: DIVMTQSPDSLAVSLGERATINCRASKSVSAAGYNFMHWYQQKPGQPPKVLIYYASNLESGVPDRFSGSGSGTDFTLTISSLQAEDVAVYYCLHSREFPFTFGGGTKVEIKR
notes: IgG1 kappa; mature H0 heavy chain and mature L1 light chain; also called Humanised 10G8 H0L1 parent
Turning to B3, the Kd with Cynomolgus OSM [16] turned out to be 251 pM; in the assay with Human OSM [17], 355 pM; with Cynomolgus OSM [19] it was 301 pM; in the assay with Human OSM [20] it was 461 pM; in the assay with Human OSM [23], 250 pM; with Cynomolgus OSM [24], 195 pM. For the same molecule, the values for the Kd with Human OSM [25], in the assay with Cynomolgus OSM [30] and with Human OSM [31] were 125 pM, 341 pM and 445 pM, respectively. In addition, the koff in the assay with Cynomolgus OSM [16] amounted to 0.000107 s⁻¹; with Human OSM [17], 0.000137 s⁻¹; in the assay with Cynomolgus OSM [19], 0.000104 s⁻¹; with Human OSM [20] it was 0.000153 s⁻¹; in the assay with Human OSM [23], 9.95e-05 s⁻¹; in the assay with Cynomolgus OSM [24], 8.31e-05 s⁻¹. In addition, the koff was 8.9e-05 s⁻¹ with Human OSM [25], 0.000115 s⁻¹ with Cynomolgus OSM [30] and 0.000151 s⁻¹ in the assay with Human OSM [31]. The kon with Cynomolgus OSM [16] amounted to 426000 M⁻¹ s⁻¹; with Human OSM [17] it was 387000 M⁻¹ s⁻¹; in the assay with Cynomolgus OSM [19] it was 345000 M⁻¹ s⁻¹; with Human OSM [20], 332000 M⁻¹ s⁻¹; with Human OSM [23], 398000 M⁻¹ s⁻¹; with Cynomolgus OSM [24], 427000 M⁻¹ s⁻¹. For the same molecule, the kon stood at 712000 M⁻¹ s⁻¹ with Human OSM [25], 338000 M⁻¹ s⁻¹ in the assay with Cynomolgus OSM [30] and 340000 M⁻¹ s⁻¹ with Human OSM [31]. For the same molecule, the IC50 in [18] was 0.0058 µg/mL and 0.039 nM. The “KB cell neutralisation assay, mean IC50” value with Cynomolgus OSM [21] was 0.0014 µg/ml and 9 pM; with Human OSM [22] it was 0.0028 µg/ml and 19 pM; in the assay with Marmoset OSM, 0.0017 µg/ml and 11 pM; with Cynomolgus OSM [26] it was 0.007 µg/ml and 47 pM; with Human OSM [27], 0.009 µg/ml and 60 pM; with Cynomolgus OSM [28], 0.007 µg/ml and 21 pM. Moreover, in the assay with Human OSM [29], the “KB cell neutralisation assay, mean IC50” value was 0.015 µg/ml and 102 pM.
